Experimental data reported in the supplement of paper PMC11780869.

Tested on: Bacillus subtilis
Test: cleaved RNA product abundance (RNA/gDNA barcode ratio) relative to median wild-type variant (ratio to wild type); higher = more accumulation of the downstream cleavage product
Description: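 MPRA in B. subtilis. Mutagenized RNase Y cleavage-site regions (9% mutation rate) were inserted into a barcoded reporter mRNA (truncated aprE or tetM). Cells were grown in LB at 37°C to OD600 0.3. The cleaved RNA isoform was gel-purified and its barcodes counted; the RNA:gDNA barcode ratio was normalised to the median wild-type variant, and the median over barcodes is reported per variant. The printed sequence is the variable window only; the reporter flanks are not printed.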

[1] = experiment (reporter, strain, medium): exp 2b: truncated aprE reporter, strain BJT200, cleavage site: cggR-gapA (positions -7 to +36 mutated)
[2] = experiment (reporter, strain, medium): exp 4a: truncated aprE reporter, strain BJT201 with 2% xylose (RNase J1 expressed), cleavage site: cggR-gapA (positions -7 to +36 mutated)
[3] = experiment (reporter, strain, medium): exp 8a: truncated aprE reporter, strain BJT201 with 2% xylose (RNase J1 expressed), cleavage site: glnRA (positions -5 to +31 mutated)
[4] = experiment (reporter, strain, medium): exp 6: tetM reporter, strain 168, cleavage site: cggR-gapA (positions -7 to +36 mutated)

ACAGACGAAGGAGCCGCAAAGAAGTTATTAAGGCATGAATAATCCCTCAAAATAAATATCTCTCACTTATTTAAA
cleaved RNA product abundance [1]: 0.0982 | cleaved RNA product abundance [2]: 0.141

ACAGACGAAGGAGCCGCAAAGACGTTATTAAGGGATGAATAATCCCCCAATATAAATATCTCTCACTTATTTAAA
cleaved RNA product abundance [2]: 0.226

ACAGACGAAGGAGCCGCAAAGAAGTTATTAAGGGATGAATAATGCCTCACTATAAATATCTCTCACTTATTTAAA
cleaved RNA product abundance [2]: 0.142

CGACATGTCCCGCTTCTTTCATTAATCCGTTAGCAACTGTTTTACTATATACATGTACCTTTTAAGAGGAGGAAT
cleaved RNA product abundance [3]: 0.471

ACAGACGAAGGAGCCGCAAAGAAGTTATTAAGGGATGACTATTCCCTCAATATAAATATCTCTCACTTATTTAAA
cleaved RNA product abundance [2]: 0.804

ACAGACGAAGGAGCCGCAAAGAAGTTATTTATGGATGAATAATCACTCAATATAAATATCTCTCACTTATTTAAA
cleaved RNA product abundance [2]: 0.124

CGACATGTCCCGCTTCTTTCATTAATCCGTTAGCAATTGTTTTGCCATATACATTTACCTTTTAAGAGGAGGAAT
cleaved RNA product abundance [3]: 0.156

ACAGACGAAGGAGCCGCTAAGAAGTTATTAAGGGATGAATTATCCCTCAATATAAATATCTCTCACTTATTTAAA
cleaved RNA product abundance [2]: 0.874

CGACATGTCCCGCTTCTTTCATTAATCCGTTAGCAACTGTTATCCTATATACATTTACCTTTTAAGAGGAGGAAT
cleaved RNA product abundance [3]: 0.337

ACAGACGAAGGAGCCGCATAGAAGTTATTAAGGGATGAATACTCCCTCAATATAAATATCTCTCACTTATTTAAA
cleaved RNA product abundance [2]: 0.618

ACAGACGAAGGAGCCGCAAAGAAGTTATTAAGTGATGAATAATCCCTCAATAGAAATATCTCTCACTTATTTAAA
cleaved RNA product abundance [2]: 0.0533

ACAGACGAAGGAGCCGCATAGAAGTTATTAAGGGTTGAATAATCCCTCAATATAAATATCTCTCACTTATTTAAA
cleaved RNA product abundance [1]: 0.498 | cleaved RNA product abundance [2]: 0.41

ACAGACGAAGGAGCCGCAAAGAAATTAATAAGGGATGAATAATCCCTCAATATAAATATCTCTCACTTATTTAAA
cleaved RNA product abundance [1]: 0.223 | cleaved RNA product abundance [2]: 0.245

CGACATGTCCCGCTTCTTTCATTAATCCGTAAGCAACTGTTTTGCTATATACATTTAACTTTTAAGAGGAGGAAT
cleaved RNA product abundance [3]: 0.79

ACAGACGAAGGAGCCGCAAAGAAGTTATTTAGGGATGAATAATCCGTCAATATAAATATCTCTCACTTATTTAAA
cleaved RNA product abundance [1]: 0.169 | cleaved RNA product abundance [2]: 0.247

ACAGACGAAGGAGCCGCCAAGAAGTTATTCAGGGATGAATAATCCCTCAATATAAATATCTCTCACTTATTTAAA
cleaved RNA product abundance [2]: 0.506

ACAGACGAAGGAGCCGCAAAGAAGTTATTAAGAGATGAATAATACCTCAATTTAAATATCTCTCACTTATTTAAA
cleaved RNA product abundance [2]: 0.0323

ACAGACGAAGGAGCCGCAAAGAAGTTATTAAGGCATGACTAATCCCTCAATATAAATATCTCTCACTTATTTAAA
cleaved RNA product abundance [1]: 0.101 | cleaved RNA product abundance [2]: 0.102

ACAGACGAAGGAGCCGCAAAGCAGTTATTAAGGGAAGAATAATCCCTCAATATAAATATCTCTCACTTATTTAAA
cleaved RNA product abundance [2]: 0.561

ACAGACGAAGGAGCCGCAAAGAAGTCATTAAGGGATGAATAATGCCTCAATATAAATATCTCTCACTTATTTAAA
cleaved RNA product abundance [2]: 0.13

ACAGACGAAGGAGCCGCAAAGACGTTATTAAGGGATGAATAATCCCTCAATATAGATATCTCTCACTTATTTAAA
cleaved RNA product abundance [2]: 0.456

CGACATGTCCCGCTTCTTTCATTAATCCGTTAGCAACTGTTTTACTATATACATTTACCTTTTAAGAGGAGGAAT
cleaved RNA product abundance [3]: 0.619

ACAGACGAAGGAGCCGCAAAGAAGTTATTAAGGGATGAATAATCCCTCAATATAAGTATCTCTCACTTATTTAAA
cleaved RNA product abundance [1]: 0.397 | cleaved RNA product abundance [2]: 0.42 | cleaved RNA product abundance [4]: 0.462

ACAGACGAAGGAGCCGCAAAGAAGTTATTAAGGTATCAATAATCCCTCAATATAAATATCTCTCACTTATTTAAA
cleaved RNA product abundance [1]: 0.106 | cleaved RNA product abundance [2]: 0.125

ACAGACGAAGGAGCCGCAAAGAAGTAATTAACGGATGAATAATCCCTCAATATAAATATCTCTCACTTATTTAAA
cleaved RNA product abundance [2]: 0.133

ACAGACGAAGGAGCCGCAAACAAGTTATTAAGGGATGGATAATCCCTCAATATAAATATCTCTCACTTATTTAAA
cleaved RNA product abundance [2]: 0.545

ACAGACGAAGGAGCCGCAAAGAAGCTATTAAGGTATGAATAATCCCTCAATATAAATATCTCTCACTTATTTAAA
cleaved RNA product abundance [1]: 0.0903 | cleaved RNA product abundance [2]: 0.0903

ACAGACGAAGGAGCCGCAAAGAAGTTATTAAGGGATGTATAATCCCTCAATATAAATATCTCTCACTTATTTAAA
cleaved RNA product abundance [1]: 0.943 | cleaved RNA product abundance [2]: 0.978 | cleaved RNA product abundance [4]: 0.798

ACAGACGAAGGAGCCGCAAAGAAATTATTAAGAGATGAATAATCCCTCTATATAAATATCTCTCACTTATTTAAA
cleaved RNA product abundance [2]: 0.117

ACAGACGAAGGAGCCGCATAGAAATTATTAAGGGATGAATAATCCCTCAATATAAATATCTCTCACTTATTTAAA
cleaved RNA product abundance [1]: 0.834 | cleaved RNA product abundance [2]: 0.574

ACAGACGAAGGAGCCGCAAAGAAGTTATTAAGGGTTGAAAAATCCCTCAATATAAATATCTCTCACTTATTTAAA
cleaved RNA product abundance [2]: 0.565

ACAGACGAAGGAGCCGCAAAGAAGTTATTAAGGAATGAATAATCCCTCAATATAATTATCTCTCACTTATTTAAA
cleaved RNA product abundance [2]: 0.117

ACAGACGAAGGAGCCGCAAAGAAGTTATTAAGGGAAGAATAAGCCCTCAATATAAATATCTCTCACTTATTTAAA
cleaved RNA product abundance [1]: 0.433 | cleaved RNA product abundance [2]: 0.823

CGACATGTCCCGCTTCTTTCATTAATCCGTTAGCAACTGTTTTGCTATTTACATGTACCTTTTAAGAGGAGGAAT
cleaved RNA product abundance [3]: 0.0435

CGACATGTCCCGCTTCTTTCATTAATCCGTTAGCATCTGTTTTGCTATATACCTTTACCTTTTAAGAGGAGGAAT
cleaved RNA product abundance [3]: 0.152

CGACATGTCCCGCTTCTTTCATTAATCCGTTAGCCAGTGTTTTGCTATATACATTTACCTTTTAAGAGGAGGAAT
cleaved RNA product abundance [3]: 0.333

CGACATGTCCCGCTTCTTTCATTATTCCGTTAGCAACTGTTTGGCTATATACATTTACCTTTTAAGAGGAGGAAT
cleaved RNA product abundance [3]: 0.949

CGACATGTCCCGCTTCTTTCATTAATCCGTTAGAAACTGATTTGCTATATACATTTACCTTTTAAGAGGAGGAAT
cleaved RNA product abundance [3]: 0.194

ACAGACGAAGGAGCCGCAATGAAGTTATTAATGGATGAATAATCCCTCAATATAAATATCTCTCACTTATTTAAA
cleaved RNA product abundance [1]: 0.126 | cleaved RNA product abundance [2]: 0.202

ACAGACGAAGGAGCCGCAAAGAAGTTAATAAGGGATGAATAGTCCCTCAATATAAATATCTCTCACTTATTTAAA
cleaved RNA product abundance [2]: 0.263

ACAGACGAAGGAGCCGCAAAGAAGTTATTAAGGGATGACTAATCCCTCAAGATAAATATCTCTCACTTATTTAAA
cleaved RNA product abundance [2]: 0.247
